Read-outs that look alike come from different tables or passages of the source.

Test [1] deals with H3K9me2S28ph nucleosomes (individually reconstituted for quantitative measurements). In words: MST.
For test [2], the target named is H3K9me2 nucleosomes (individually reconstituted for quantitative measurements). In words: MST.
Test [3] concerns the target H3K9me2S28ph nucleosomes (individually reconstituted for quantitative measurements). The test can be described thus: MST. The source holds these as a separate data set.
The target is the same in test [4]. In words: MST. The source holds these as a separate data set.
Test [5] concerns the target HP1β (HP1) (UniProt P83916). In words: eCFP-HP1 retention on H2A + H3 nucleosome library. The following applies: reference: H3K9me2 nucleosomes; sites S28.
The target in test [6] is HP1β (HP1) (UniProt P83916). In words: eCFP-HP1 retention on immobilised nucleosome library. The following applies: reference: H3K9me2 nucleosomes; sites S28.

As for “HP1 without eCFP tag (human HP1β) (from UniProt P83916 1-185) (natural protein)”, the Kd (usually the free concentration of one partner at which half of the binding sites on the other are occupied at equilibrium, for simple one-to-one binding) in test [1] amounted to 1800 nM; in test [2] it was 2400 nM; in test [3], 600 nM; in test [4] it was 1700 nM. In test [3], this substance displayed a fold stronger binding than the H3K9me2 nucleosome on 187 bp DNA of 2 fold.
Turning to histone H3 H3K9me2S28ph nucleosomes, the fold change with HP1β (HP1) [5] amounted to 2.3 fold. In the test with HP1β (HP1) [6], the “other: fold enrichment over unmodified H3 nucleosomes” value is given as “stronger; reference 4.8”.

The record behind these values is PMC8163371.
